{"source": "patent US20170137514A1", "about": "(Bristol-Myers Squibb, published 2017)", "binders": {"B1": {"name": "LAG3.6-G4P (antibody, V domains shown)", "VH": "QVQLQQWGAGLLKPSETLSLTCAVYGGSFSDYYWNWIRQPPGKGLEWIGEIIHSGSTNSNPSLKSRVTLSLDTSKNQFSLKLRSVTAADTAVYYCAFGYSDYEYNWFDPWGQGTLVTVSS", "VL": "EIVLTQSPATLSLSPGERATLSCRASQSISSYLAWYQQKPGQAPRLLIYDASNRATGIPARFSGSGSGTDFTLTISSLEPEDFAVYYCQQRSNWPLTFGQGTNLEIKR", "notes": "also called var2; copies: 2 + 2"}, "B2": {"name": "LAG3.8 antibody variant of LAG3.1 (25F7) (antibody, V domains shown)", "VH": "B1 VH with I52N, S54I, S56N", "VL": "B1 VL", "notes": "It was made by site-directed mutagenesis of the LAG3.1 VH"}, "B3": {"name": "LAG3.7-G4P (antibody, V domains shown)", "VH": "B1 VH with I52N, S54G, S56G", "VL": "B1 VL", "notes": "also called var3; copies: 2 + 2"}, "B4": {"name": "antibody 25F7 (LAG3.1), anti-human LAG-3 human monoclonal antibody (antibody, human IgG4 S228P, kappa, V domains shown)", "VH": "B1 VH with I52N, S54N, S56N", "VL": "B1 VL", "notes": "The heavy chain is human IgG4 with S228P; also called antibody LAG3.1"}}, "key": {"[1]": {"molecular_target": "T1, soluble human LAG-3/Fc antigen (human, UniProt P18627 23-450)", "T1 construct": "also called huLAG-3-Fc; not shown: Fc part of the fusion", "T1 sequence": "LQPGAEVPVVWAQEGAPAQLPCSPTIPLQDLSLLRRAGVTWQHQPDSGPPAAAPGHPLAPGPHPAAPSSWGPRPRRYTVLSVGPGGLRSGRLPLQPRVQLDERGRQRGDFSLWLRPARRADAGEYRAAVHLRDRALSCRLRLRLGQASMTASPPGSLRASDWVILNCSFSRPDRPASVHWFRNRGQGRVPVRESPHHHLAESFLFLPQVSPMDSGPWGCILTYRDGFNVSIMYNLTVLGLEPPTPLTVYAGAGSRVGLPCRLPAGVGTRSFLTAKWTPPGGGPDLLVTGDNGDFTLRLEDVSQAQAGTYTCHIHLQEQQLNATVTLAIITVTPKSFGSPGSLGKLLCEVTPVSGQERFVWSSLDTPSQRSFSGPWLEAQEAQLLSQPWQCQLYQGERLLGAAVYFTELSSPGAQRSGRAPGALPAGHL", "assay": "BIACORE (surface plasmon resonance) with soluble human LAG-3/Fc antigen"}, "[2]": {"molecular_target": "T2, human LAG-3 on activated Hu CD4+ T cells", "T2 construct": "differs from m5, which is LAG-3 transduced into 3A9 cells; also called native human LAG-3", "T2 chain": "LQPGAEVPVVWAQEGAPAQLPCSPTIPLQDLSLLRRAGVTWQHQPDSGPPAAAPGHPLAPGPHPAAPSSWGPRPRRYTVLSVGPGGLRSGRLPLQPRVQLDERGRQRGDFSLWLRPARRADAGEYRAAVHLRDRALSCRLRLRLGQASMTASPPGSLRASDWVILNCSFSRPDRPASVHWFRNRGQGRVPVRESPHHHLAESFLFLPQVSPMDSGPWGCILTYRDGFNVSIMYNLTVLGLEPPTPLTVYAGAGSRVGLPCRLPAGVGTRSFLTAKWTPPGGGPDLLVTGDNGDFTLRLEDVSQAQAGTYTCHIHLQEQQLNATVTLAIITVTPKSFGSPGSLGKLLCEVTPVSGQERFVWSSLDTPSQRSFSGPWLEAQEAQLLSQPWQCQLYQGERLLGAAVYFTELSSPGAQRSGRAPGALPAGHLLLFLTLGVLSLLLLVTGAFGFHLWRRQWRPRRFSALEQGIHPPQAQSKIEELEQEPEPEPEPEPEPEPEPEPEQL", "assay": "flow cytometry on anti-CD3/anti-CD28-activated human CD4+ T cells (native LAG-3), PE anti-human Fc detection, FL2 GMFI", "experimental": "(§1) To test the ability of the antibody variants to bind to native human LAG-3 on the surface of activated human T cells, normal healthy donor peripheral blood mononuclear cells were stimulated in 15 cm tissue culture plates at a density of 2×10e6 cells/mL, with a combination of anti-CD3 (eBioscience, Cat #16-0037-85) and anti-CD28 (BD Bioscience, Cat #555725) antibodies present in solution at 5 μg/mL and 3 μg/mL, respectively. Following three days of stimulation cells were harvested, washed 1× with 1×PFAE buffer (1×PBS+2% FBS, 0.02% sodium azide, 2 mM Na EDTA), and resuspended in 1×PFAE buffer for staining.\n(§2) For the binding reaction, 100 μl of this diluted antibody mixture was added to 2×10⁵ cells and the mixture was incubated on at 4° C. for 30 minutes. The cells were then washed two times with 1×PFAE buffer. A 1:200 dilution of PE-labeled goat anti-human Fcγ-specific antibody (Jackson ImmunoResearch, Cat. #109-116-170) was added and the mixture was incubated for 30 minutes at 4° C., followed by washing twice with cold 1×PFAE buffer. After the final wash, 150 μl of cold 1×PFAE was added to each solution and analysis of antibody binding was carried out by flow cytometry using a FACSCanto flow cytometer (BD Bioscience)."}, "[3]": {"molecular_target": "T1, soluble human LAG-3/Fc antigen", "assay": "Biacore (SPR); antibody kept in PBS"}, "[4]": {"molecular_target": "T2, human LAG-3 on activated Hu CD4+ T cells", "assay": "flow cytometry on activated human CD4+ T cells (donor WB1907), FL2 GMFI; antibody after 5 days at 40 °C in pH 8.0 ammonium bicarbonate", "experimental": "as §1, §2"}, "[5]": {"molecular_target": "T1, soluble human LAG-3/Fc antigen", "assay": "Biacore (SPR); antibody after accelerated stress at pH 8 (5 days, 40 C)"}, "[6]": {"molecular_target": "T2, human LAG-3 on activated Hu CD4+ T cells", "assay": "flow cytometry on activated human CD4+ T cells (donor WB1907), FL2 GMFI; forced stability study, sample not marked pH 8", "experimental": "as §1, §2"}}, "note": "Substitutions are numbered along the chain they refer to. In names and notes the source's numbering stands."}
{"binder": "B1", "values": [{"measurement": "Kd", "setting": "[1]", "result": 660, "unit": "pM"}, {"measurement": "koff", "setting": "[1]", "result": 0.000777, "unit": "s⁻¹"}, {"measurement": "kon", "setting": "[1]", "result": "1.18e+06", "unit": "M⁻¹ s⁻¹"}, {"measurement": "EC50", "setting": "[2]", "result": 210, "unit": "pM"}]}
{"binder": "B2", "values": [{"measurement": "Kd", "setting": "[3]", "result": 250, "unit": "pM"}, {"measurement": "koff", "setting": "[3]", "result": 0.000368, "unit": "s⁻¹"}, {"measurement": "kon", "setting": "[3]", "result": "1.47e+06", "unit": "M⁻¹ s⁻¹"}, {"measurement": "EC50", "setting": "[4]", "result": 210, "unit": "pM"}, {"measurement": "Kd", "setting": "[5]", "result": 250, "unit": "pM"}, {"measurement": "koff", "setting": "[5]", "result": 0.000402, "unit": "s⁻¹"}, {"measurement": "kon", "setting": "[5]", "result": "1.62e+06", "unit": "M⁻¹ s⁻¹"}, {"measurement": "EC50", "setting": "[6]", "result": 240, "unit": "pM"}]}
{"binder": "B3", "values": [{"measurement": "kon", "setting": "[1]", "result": "1.04e+06", "unit": "M⁻¹ s⁻¹"}, {"measurement": "EC50 (read off the curve)", "setting": "[2]", "result": "~300", "unit": "pM"}]}
{"binder": "B4", "values": [{"measurement": "Kd", "setting": "[3]", "result": 210, "unit": "pM"}, {"measurement": "Kd", "setting": "[1]", "result": 270, "unit": "pM"}, {"measurement": "EC50", "setting": "[4]", "result": 200, "unit": "pM"}, {"measurement": "Kd", "setting": "[5]", "result": 200, "unit": "pM"}, {"measurement": "EC50", "setting": "[2]", "result": 130, "unit": "pM"}]}
